Measured values taken from patent US7794711B2, “Agent for treating chondroma and chondrosarcoma” (Chugai Seiyaku Kabushiki Kaisha, priority 2002, dated 2010).
Substitutions are numbered along the chain they refer to.

Legend:
[1] = system: Human chondrosarcoma cell HTB-94; assay: Viability of cells (Premix WST-1 Cell Proliferation Assay System); assay type: cell-based; conditions: 20 μM, 2 hours before the addition of anti-PTHrP MoAb (FIG. 2)
Method: Human chondrosarcoma cell HTB-94 (ATCC) was suspended in Dulbecco's Modified Eagle's Medium (DMEM) containing 10% FBS, L-glutamine, penicillin-streptomycin (all are available from GIBCO-BRL), and was cultured and proliferated at 37° C. under 5% CO2 wet condition.
That is, reduction ratio of tetrazolium salt (WST-1) by viable cells was determined from the increase in OD450, and it was considered as the index of the number of viable cells.

[2] = system: HTB-94 cells; assay: Western blotting of HTB-94 cell lysates; assay type: cell-based, human
Method: In the experiment with regard to the following collagen type-X, the cells were treated by anti-PTHrP MoAb for further five days (for total seven days). All the cell lysates (50 μg as protein) of the above-mentioned cells were separated by SDS-PAGE using 12% gel and blotted on a nitrocellulose film (Bio-Rad Laboratories). The blocked film was incubated together with an anti-procaspase-3 antibody (Wako Pure Chemical) diluted to 1/100, an anti-PARP antibody, an anti-Bcl-2 antibody and an anti-Bax antibody (both from Santa Cruz Biotechnology), an anti-collagen type X antibody (Calbiochem-Novabiochem Corporation) and a peroxidase conjugated secondary antibody (Amersham) diluted to 1/1000.
Here, PARP (poly(ADP-ribose) polymerase) is an enzyme important for the survival in a cell, and caspase-3 causes cleavage of this PARP.
Detection was performed using ECL Western blotting detection system (Amersham). Each blot was further re-detected by ECL using anti-o-actin antibody (Santa Cruz Biotechnology) and the peroxidase conjugated secondary antibody.

[3] = system: HTB-94 cells; assay: Immunocytochemistry using anti-collagen type X antibody; assay type: cell-based, human; conditions: particularly at high concentration, seven days
Method: Immunocytochemistry was performed by streptavidin-peroxidase method using histofine SAB-PO kit ([…]). […] Subsequently, the cells were transferred to 3% H2O2 methanol to block endogenous peroxidase activity, washed with PBS (pH 7.2), and then blocked with PBS containing normal 10% serum (secondary antibody) of the congeneric origin in order to make the background minimum and incubated with anti-collagen type X antibody (primary antibody) at room temperature for 2 hours. Afterwards the cells were washed with PBS, incubated with the secondary antibody at room temperature in a wet chamber for 20 minutes, and incubated with peroxidase conjugated streptavidin ([…]) for 20 minutes under the same conditions. Finally, coloring reaction was performed with 3,3-diaminobenzidine tetrahydrochloride (DAB) reagent (Dojindo). The cells were counterstained with hematoxylin and microscopically observed at 200-fold and 400-fold magnification.

[4] = system: HTB-94 cells; assay: TUNEL staining; assay type: cell-based, human; conditions: two days
Method: TUNEL staining was performed using Apoptag Peroxidase Kit (Intergen Company). […] Subsequently, the cells were incubated with a TdT reaction mixture (TdT solution+[…] and dATP) at 37° C. for 60 minutes, and further incubated with peroxidase conjugated anti-dioxygenin antibody at room temperature for 30 minutes. The cells were stained with DAB and then counterstained with Mayer's hematoxylin and microscopically observed at 200-fold, 400-fold and 600-fold magnification.

[5] = system: HTB-94 cells; assay: RT-PCR; assay type: cell-based, human; conditions: 100 μg/ml, two days, vs control
Method: PCR of cDNA was performed using Ready-to-Go PCR beads (Pharmacia) and primers for human Bcl-2, Bax, Ihh, ColX (α1) and β-actin amplification (12.5 pmol(s) each).
Amplification was performed using Perkin-Elmer/Cetus DNA Thermal Cycler (TAKARA SHUZO) on the conditions of 30 cycles each of 94° C., 0.5 min; 55° C., 0.5 min; 72° C., 0.5 min and last extension reaction at 72° C. for 7 minutes.
Electrophoresis of the obtained PCR product (10 μL) was carried out on a 4% agarose gel, and stained and observed with ethidium bromide.

[6] = system: HTB-94 cells; assay: DNA fragmentation assay; assay type: cell-based, human; conditions: two days
Method: That is, the cells were dissolved in a dissolution buffer, DNA was isolated, extracted with an organic solvent and ethanol precipitation was carried out. The precipitated DNA was centrifuged (12,000 g, 10 min) and then washed with 80% ethanol, and dissolved in 30 μl of TE buffer. Each sample (10 μl) was subjected to electrophoresis on a 1.2% agarose gel, and stained with ethidium bromide.

[7] = molecular target: T1, PTHrP (1-34) (Homo sapiens, UniProt P12272); assay: Screening of hybridomas by solid phase RIA of culture supernatant; assay type: binding; design: purchased Peninsula; conditions: hybridoma culture supernatant
Method: Hybridomas #23-57-154 and #23-57-137-1 which produce monoclonal antibody to human PTHrP (1-34) were produced as follows (Sato, K. et al., J. Bone Miner. Res. 8, 849-860, 1993). The amino acid sequence of human PTHrP (1-34) is shown in the SEQ ID No. 75.
Screening of hybridomas was performed by measuring and selecting the existence of a PTHrP recognizing antibody by applying solid phase RIA method to the culture supernatant of the wells where growth was recognized in HAT culture medium. Hybridomas were collected from the wells where binding ability with an antibody was recognized, suspended to the culture medium prepared by adding OPI-supplement (Sigma) to the RPMI-1640 culture medium containing FCS 15%, and the hybridomas was simplified by the limiting dilution method.

[8] = molecular target: T1, PTHrP (1-34); assay: ELISA measurement of antigen binding ability; design: coated with 100 μl of human PTHrP(1-34) (Peptide Research Institute); purchased Peptide Research Institute; conditions: expressed in COS-7 cells; H chain humanized version a
Method: The ELISA plate for antigen binding measurement was prepared as follows. Each well of a 96 well plate for ELISA was coated with 100 μl of human PTHrP(1-34) (Peptide Research Institute) adjusted to 1 μg/ml concentration by the coating buffer. […] After the plate was incubated at room temperature and washed with PBS-Tween20, 100 μl of alkaline phosphatase (TAGO) conjugated goat anti-man IgG antibody was added. After the plate was incubated at room temperature and washed with PBS-Tween20, 1 mg/ml of a substrate solution (Sigma104, p-nitrophenylphosphate, SIGMA) was added, and, next, 405 nm absorption was measured with a micro plate reader (Bio Rad).
The ELISA plate for antigen binding measurement was prepared as follows. Each well of a 96 well plate for ELISA was coated with 100 μl of human PTHrP(1-34) adjusted to 1 μg/ml concentration by the coating buffer. After blocking with 200 μl of the dilution buffer, the culture supernatant of the COS-7 cells in which hybrid antibody or humanized antibody was expressed or the purified hybrid antibody or the humanized antibody was stepwise diluted and added to each well. After the plate was incubated at room temperature and washed with PBS-Tween20, 100 μl of alkaline phosphatase (TAGO) conjugated goat anti-man IgG antibody was added. After the plate was incubated at room temperature and washed with PBS-Tween20, 1 mg/ml of a substrate solution (Sigma104, p-nitrophenylphosphate, SIGMA) was added, and 405 nm absorption was then measured on a micro plate reader (Bio Rad).

[9] = 0, 10, 30, 50, 100, and 200 μg/ml, two days

DEVD-CHO
effect of caspase-3 inhibitor on the effect of anti-PTHrP MoAb on cell viability [1]: inhibited the effect of this anti-PTHrP MoAb

B1: anti-PTHrP MoAb: mouse monoclonal antibody to human PTHrP (1-34) prepared from hybridoma #23-57-137-1 (FERM BP-5631) (antibody, V domains shown)
VH: EVQLVESGGDLVKPGGSLKLSCAASGFTFSSYGMSWIRQTPDKRLEWVATISSGGSYTYYPDSVKGRFTISRDNAKNTLYLQMSSLKSEDTAMFYCARQTTMTYFAYWGQGTLVTVSA
VL: QLVLTQSSSASFSLGASAKLTCTLSSQHSTYTIEWYQQQPLKPPKYVMDLKQDGSHSTGDGIPDRFSGSSSGADRYLSISNIQPEDEAMYICGVGDTIKEQFVYVFGGGTKVTVLGQP
85 kDa fragment of PARP [2, 9]: increased depending on the concentration
Bax (protein) [2, 9]: increased as the concentration of anti-PTHrP MoAb increased
Bcl-2 (protein) [2, 9]: decreased as the concentration of anti-PTHrP MoAb increased
procaspase-3 (35 kDa) ([2]; 100 μg/ml, two days): decreased
procaspase-3 (35 kDa) ([2]; 200 μg/ml, two days): decreased
anti-PTHrP MoAb concentration at maximum collagen type X ([2]; total seven days): 50 µg/mL
collagen type X (protein) ([2]; treated vs untreated cells, total seven days): more collagen type X in the cells treated with Anti-PTHrP MoAb than in untreated cells
cell morphology (differentiation) [3]: a number of cells which roundly expanded were observed
frequency of appearance of cells in apoptosis (stained brown) ([4]; 0, 10, 100, or 200 μg/ml): increased depending on the concentration
morphological changes characteristic of apoptosis ([4]; after treatment): contraction and round outline were also recognized
amount of expression of Bax (mRNA) [5]: increased
amount of expression of Bcl-2 (mRNA) [5]: decreased
fragmentation of DNA in nucleosome specific to apoptosis ([6]; 10 μg/ml): observed
fragmentation of DNA in nucleosome specific to apoptosis ([6]; 200 μg/ml): observed
binding ability with PTHrP (1-34) [7]: strong binding ability

B2: m/hMBC1Laλ: hybrid antibody: L chain mouse FR1, 2/human FR3, 4 (version a); humanized H chain (antibody, V domains shown)
VH: QVQLVESGGGVVQPGRSLRLSCAASGFTFSSYGMSWVRQAPGKGLEWVATISSGGSYTYYPDSVKGRFTISRDNSKNTLYLQMNSLRAEDTAVYYCARQTTMTYFAYWGQGTLVTVSS
VL: QLVLTQSSSASFSLGASAKLTCTLSSQHSTYTIEWYQQQPLKPPKYVMDLKQDGSHSTGDGIPDRFSGSSSGAERYLTISSLQSEDEADYYCGVGDTIKEQFVYVFGGGTKLTVL
PTHrP binding ability compared with chimeric antibody [8]: equivalent to chimera #23-57-137-1 antibody

B3: hmmMBC1L(λ): hybrid antibody: L chain human FR1/mouse FR2, 3, 4; humanized H chain (antibody, V domains shown)
VH: B2 VH
VL: QLVLTQSPSASASLGASVKLTCTLSSQHSTYTIEWYQQQPLKPPKYVMDLKQDGSHSTGDGIPDRFSGSSSGADRYLSISNIQPEDEAMYICGVGDTIKEQFVYVFGGGTKVTVL
PTHrP binding ability compared with chimeric antibody [8]: equivalent to chimera #23-57-137-1 antibody

B4: m/hMBC1Ldλ: hybrid antibody: L chain mouse FR1, 2/human FR3, 4 (version d, 87 isoleucine); humanized H chain (antibody, V domains shown)
VH: B2 VH
VL: B2 VL with Y91I
PTHrP binding ability compared with chimeric antibody [8]: equivalent to chimera #23-57-137-1 antibody
